# Paper PMC5897418, “A Synthesized Glucocorticoid- Induced Leucine Zipper Peptide Inhibits Retinal Müller Cell Gliosis” (Frontiers in Pharmacology, 2018)
# No end group written: not given here.
# Tests used:
# [1] = water and culture medium
# Müller cells [2] = settings: 10, 50, 100, and 150 μM, 24 h, primary rat Müller cells, n = 6, compared with control group
# Experimental: The viability of Müller cells was determined by the cell counting kit-8 (CCK-8) assay. Briefly, 0.5 × 10^5 cells per well were seeded in 96-well plates and allowed to attach overnight. Then, the culture media were replaced with fresh media containing different concentrations of GILZ-p (0, 10, 50, 100, and 150 μM). After 24 h, 10 μL CCK-8 (Dojindo, Kumamoto, Japan) solution was added to each well, and the plates were incubated for another 2 h. Measurements of optical density were obtained at a wavelength of 450 nm using a spectrophotometer.
# Müller cells [3] = settings: 10 μM FITC-labeled GILZ-p, 6 and 12 h, confocal immunofluorescence
# Experimental: Müller cells were cultured on 6-well plates and starved in serum-free DMEM F12 for 24 h. The cells were then treated with 10 μM fluorescein isothiocyanate (FITC)-labeled GILZ-p for 6 and 12 h, respectively. After treatment, the Müller cells were washed with PBS, fixed in 4% paraformaldehyde (Sigma-Aldrich Corp., St. Louis, MO, United States), and permeabilized in 0.1% Triton X-100 (Promega, Madison, WI, United States) for 10 min. The cells were counterstained with 4′6-diamidino-2-phenylindole (DAPI) (Sigma-Aldrich Corp.) and examined under a laser confocal microscope (Leica Microsystems, Wetzlar, Hesse-Darmstadt, Germany).
# Müller cells [4] = settings: 10 μM FITC-labeled GILZ-p, 15 min, serum-starved primary rat Müller cells, flow cytometry
# Experimental: Müller cells were cultured on 6-well plates and starved in serum-free DMEM F12 for 24 h.
# Müller cells were cultured on 6-well plates and starved in serum-free DMEM F12 for 24 h. […] Click here for additional data file.
# [5] = biological target: nuclear factor (NF)-κB p65 (rat (endogenous in primary retinal …, UniProt Q7TQN4 1-550)); experiment: cell-based or functional assay
# Sequence of nuclear factor (NF)-κB p65 (rat (Q7TQN4 whole entry): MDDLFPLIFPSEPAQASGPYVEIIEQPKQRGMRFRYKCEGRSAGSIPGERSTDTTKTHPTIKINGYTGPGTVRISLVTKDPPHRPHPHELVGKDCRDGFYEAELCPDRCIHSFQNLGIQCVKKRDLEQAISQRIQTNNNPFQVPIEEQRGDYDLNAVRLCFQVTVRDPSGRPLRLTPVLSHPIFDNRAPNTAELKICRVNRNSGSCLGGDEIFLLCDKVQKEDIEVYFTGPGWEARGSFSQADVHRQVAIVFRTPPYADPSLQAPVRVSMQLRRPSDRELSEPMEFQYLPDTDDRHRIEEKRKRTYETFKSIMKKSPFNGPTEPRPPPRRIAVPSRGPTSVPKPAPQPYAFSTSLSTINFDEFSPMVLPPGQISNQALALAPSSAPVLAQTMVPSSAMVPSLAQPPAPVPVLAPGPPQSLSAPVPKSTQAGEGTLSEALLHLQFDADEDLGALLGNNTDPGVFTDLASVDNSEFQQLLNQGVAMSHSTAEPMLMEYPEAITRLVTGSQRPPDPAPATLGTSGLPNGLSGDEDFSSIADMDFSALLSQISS
Molecule,solubility [1],"cytotoxicity (cell viability, CCK-8) (Müller cells [2])",intracellular localisation of GILZ-p (Müller cells [3]),Müller cells associated with GILZ-p (Müller cells [4]),"IC50 of GILZ-p (without the His tag) for inhibiting LPS-induced ICAM-1 expression in Müller cells (western blot, 24 h) [5] [µM]","IC50 of GILZ-p (without the His tag) for inhibiting LPS-induced IL-1β expression in Müller cells (western blot, 24 h) [5] [µM]","IC50 of GILZ-p (without the His tag) for inhibiting LPS-induced MCP-1 expression in Müller cells (western blot, 24 h) [5] [µM]","IC50 of GILZ-p (without the His tag) for inhibiting LPS-induced TNFα expression in Müller cells (western blot, 24 h) [5] [µM]","IC50 of GILZ-p (without the His tag) for inhibiting the LPS-induced downregulation of AQP4 in Müller cells (western blot, 24 h) [5] [µM]","IC50 of GILZ-p (without the His tag) for inhibiting the LPS-induced upregulation of GFAP in Müller cells (western blot, 24 h) [5] [µM]"
YGRKKRRQRRRKTLASPEQLEKFQSRLSPEEPAPEAPETPEAPGGSAV [GILZ-p],water-soluble and fully dissolved in culture medium,no detectable toxicity,aggregated in the cytoplasm,about 7.92%,,,,,,
YGRKKRRQRRRKTLASPEQLEKFQSRLSPEEPAPEAPETPEAPGGSAV [His-tag-GILZ-p (TAT-GILZ 98-134 peptide with a C-terminal 6x His tag)],,,,,7.13,8.93,5.82,8.77,2.32,11.2
